From patent US20140087995A1 (published 2014)
Numbered stars: 1 amine (or outer) side, 2 acyl side, 3 side chain; on linkers, the order of the positions; unused ones are H or OH. Bridge positions count the residues as written; N and C are the ends. Side chains are listed from the residue outwards. Ends that are not written are not given here. * marks the point of attachment. C20 diacid = O=C(O)CCCCCCCCCCCCCCCCCCC(=O)*; γGlu = O=C(O)[C@H](CCC(=O)[*:2])N[*:1]; AEEA = NCCOCCOCC(=O)O

T1: human amylin receptor (amylin 3(a) receptor: human calcitonin receptor plus RAMP-3) (human, UniProt P30988 25-474; O60896 24-148, limits assumed)
T1 sequence (looked up) 1: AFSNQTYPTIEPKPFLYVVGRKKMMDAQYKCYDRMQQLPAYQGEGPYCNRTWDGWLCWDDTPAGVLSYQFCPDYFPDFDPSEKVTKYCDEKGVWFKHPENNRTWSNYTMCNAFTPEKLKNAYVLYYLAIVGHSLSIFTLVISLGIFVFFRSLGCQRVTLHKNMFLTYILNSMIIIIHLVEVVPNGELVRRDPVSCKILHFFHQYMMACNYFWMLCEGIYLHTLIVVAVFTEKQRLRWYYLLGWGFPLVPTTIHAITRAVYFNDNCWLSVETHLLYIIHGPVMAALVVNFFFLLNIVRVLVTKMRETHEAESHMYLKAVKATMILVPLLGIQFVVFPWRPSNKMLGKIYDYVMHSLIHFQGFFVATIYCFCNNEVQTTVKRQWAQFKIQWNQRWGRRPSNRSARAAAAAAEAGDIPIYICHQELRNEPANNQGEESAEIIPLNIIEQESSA
T1 sequence (looked up) 2: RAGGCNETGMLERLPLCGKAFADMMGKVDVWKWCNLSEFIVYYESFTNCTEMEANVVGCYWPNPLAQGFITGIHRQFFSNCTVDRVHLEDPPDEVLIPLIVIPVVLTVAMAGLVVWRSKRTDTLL

T2: human calcitonin receptor (human, UniProt P30988 25-474)
T2 sequence (looked up): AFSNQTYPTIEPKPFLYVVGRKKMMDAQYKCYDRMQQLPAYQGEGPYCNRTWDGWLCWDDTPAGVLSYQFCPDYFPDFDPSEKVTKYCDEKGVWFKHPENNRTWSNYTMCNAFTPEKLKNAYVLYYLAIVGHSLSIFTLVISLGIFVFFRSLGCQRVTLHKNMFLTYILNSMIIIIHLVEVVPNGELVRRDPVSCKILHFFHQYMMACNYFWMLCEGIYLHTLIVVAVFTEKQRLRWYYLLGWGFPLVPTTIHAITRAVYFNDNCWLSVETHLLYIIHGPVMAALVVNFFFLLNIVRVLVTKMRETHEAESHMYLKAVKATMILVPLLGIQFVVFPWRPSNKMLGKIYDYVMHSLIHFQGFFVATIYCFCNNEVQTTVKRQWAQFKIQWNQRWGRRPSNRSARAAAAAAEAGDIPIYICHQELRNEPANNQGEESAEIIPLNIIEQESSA


Key:
[1] = target: T1, human amylin receptor (amylin 3(a) …); test: cell-based or functional assay
[2] = target: T2, human calcitonin receptor; test: cell-based or functional assay

| Binder | hAmylin-R funct. EC50 [1] [nM] | Ratio hCT/hAmylin funct. (hCTR EC50 against hAmylin-R EC50) [2] | hCTR funct. EC50 [2] [nM] |
| --- | --- | --- | --- |
| K([AEEA-AEEA-γGlu-C20 diacid])CNTATCATQRLANFLRHSSPNFGAIPSSTNVGSETY-NH2 (disulfide 2-7; N-terminus assumed; SMILES CC[C@H](C)[C@H](NC(=O)[C@H](C)NC(=O)CNC(=O)[C@H](Cc1ccccc1)NC(=O)[C@H](CC(N)=O)NC(=O)[C@@H]1CCCN1C(=O)[C@H](CO)NC(=O)[C@H](CO)NC(=O)[C@H](Cc1c[nH]cn1)NC(=O)[C@H](CCCNC(=N)N)NC(=O)[C@H](CC(C)C)NC(=O)[C@H](Cc1ccccc1)NC(=O)[C@H](CC(N)=O)NC(=O)[C@H](C)NC(=O)[C@H](CC(C)C)NC(=O)[C@H](CCCNC(=N)N)NC(=O)[C@H](CCC(N)=O)NC(=O)[C@@H](NC(=O)[C@H](C)NC(=O)[C@@H]1CSSC[C@H](NC(=O)[C@@H](N)CCCCNC(=O)COCCOCCNC(=O)COCCOCCNC(=O)CC[C@H](NC(=O)CCCCCCCCCCCCCCCCCCC(=O)O)C(=O)O)C(=O)N[C@@H](CC(N)=O)C(=O)N[C@@H]([C@@H](C)O)C(=O)N[C@@H](C)C(=O)N[C@@H]([C@@H](C)O)C(=O)N1)[C@@H](C)O)C(=O)N1CCC[C@H]1C(=O)N[C@@H](CO)C(=O)N[C@@H](CO)C(=O)N[C@H](C(=O)N[C@@H](CC(N)=O)C(=O)N[C@H](C(=O)NCC(=O)N[C@@H](CO)C(=O)N[C@@H](CCC(=O)O)C(=O)N[C@H](C(=O)N[C@@H](Cc1ccc(O)cc1)C(N)=O)[C@@H](C)O)C(C)C)[C@@H](C)O, also called compound 25) | 0.217 | 46.2 | 10 |
| K([γGlu-C20 diacid])CNTATCATQRLANFLRHSSPNFGAIPSSTNVGSETY-NH2 (disulfide 2-7; N-terminus assumed; SMILES CC[C@H](C)[C@H](NC(=O)[C@H](C)NC(=O)CNC(=O)[C@H](Cc1ccccc1)NC(=O)[C@H](CC(N)=O)NC(=O)[C@@H]1CCCN1C(=O)[C@H](CO)NC(=O)[C@H](CO)NC(=O)[C@H](Cc1c[nH]cn1)NC(=O)[C@H](CCCNC(=N)N)NC(=O)[C@H](CC(C)C)NC(=O)[C@H](Cc1ccccc1)NC(=O)[C@H](CC(N)=O)NC(=O)[C@H](C)NC(=O)[C@H](CC(C)C)NC(=O)[C@H](CCCNC(=N)N)NC(=O)[C@H](CCC(N)=O)NC(=O)[C@@H](NC(=O)[C@H](C)NC(=O)[C@@H]1CSSC[C@H](NC(=O)[C@@H](N)CCCCNC(=O)CC[C@H](NC(=O)CCCCCCCCCCCCCCCCCCC(=O)O)C(=O)O)C(=O)N[C@@H](CC(N)=O)C(=O)N[C@@H]([C@@H](C)O)C(=O)N[C@@H](C)C(=O)N[C@@H]([C@@H](C)O)C(=O)N1)[C@@H](C)O)C(=O)N1CCC[C@H]1C(=O)N[C@@H](CO)C(=O)N[C@@H](CO)C(=O)N[C@H](C(=O)N[C@@H](CC(N)=O)C(=O)N[C@H](C(=O)NCC(=O)N[C@@H](CO)C(=O)N[C@@H](CCC(=O)O)C(=O)N[C@H](C(=O)N[C@@H](Cc1ccc(O)cc1)C(N)=O)[C@@H](C)O)C(C)C)[C@@H](C)O, also called compound 27) [N^ε1-[(4S)-4-carboxy-4-(19-carboxynonadecanoylamino)butanoyl]-[Arg17,Pro21,Pro27,Glu35]-h-amylin] | 0.133 | 22.6 | 3 |
| K([γGlu-γGlu-C20 diacid])CNTATCATQRLADFLRHSSPNFGAIPSSTNVGSDTY-NH2 (disulfide 2-7; N-terminus assumed; SMILES CC[C@H](C)[C@H](NC(=O)[C@H](C)NC(=O)CNC(=O)[C@H](Cc1ccccc1)NC(=O)[C@H](CC(N)=O)NC(=O)[C@@H]1CCCN1C(=O)[C@H](CO)NC(=O)[C@H](CO)NC(=O)[C@H](Cc1c[nH]cn1)NC(=O)[C@H](CCCNC(=N)N)NC(=O)[C@H](CC(C)C)NC(=O)[C@H](Cc1ccccc1)NC(=O)[C@H](CC(=O)O)NC(=O)[C@H](C)NC(=O)[C@H](CC(C)C)NC(=O)[C@H](CCCNC(=N)N)NC(=O)[C@H](CCC(N)=O)NC(=O)[C@@H](NC(=O)[C@H](C)NC(=O)[C@@H]1CSSC[C@H](NC(=O)[C@@H](N)CCCCNC(=O)CC[C@H](NC(=O)CC[C@H](NC(=O)CCCCCCCCCCCCCCCCCCC(=O)O)C(=O)O)C(=O)O)C(=O)N[C@@H](CC(N)=O)C(=O)N[C@@H]([C@@H](C)O)C(=O)N[C@@H](C)C(=O)N[C@@H]([C@@H](C)O)C(=O)N1)[C@@H](C)O)C(=O)N1CCC[C@H]1C(=O)N[C@@H](CO)C(=O)N[C@@H](CO)C(=O)N[C@H](C(=O)N[C@@H](CC(N)=O)C(=O)N[C@H](C(=O)NCC(=O)N[C@@H](CO)C(=O)N[C@@H](CC(=O)O)C(=O)N[C@H](C(=O)N[C@@H](Cc1ccc(O)cc1)C(N)=O)[C@@H](C)O)C(C)C)[C@@H](C)O, also called compound 2) | 0.182 | 16.4 | 3 |
| K([AEEA-γGlu-C20 diacid])CNTATCATQRLANFLRHSSPNFGAIPSSTNVGSNTY-NH2 (disulfide 2-7; N-terminus assumed; SMILES CC[C@H](C)[C@H](NC(=O)[C@H](C)NC(=O)CNC(=O)[C@H](Cc1ccccc1)NC(=O)[C@H](CC(N)=O)NC(=O)[C@@H]1CCCN1C(=O)[C@H](CO)NC(=O)[C@H](CO)NC(=O)[C@H](Cc1c[nH]cn1)NC(=O)[C@H](CCCNC(=N)N)NC(=O)[C@H](CC(C)C)NC(=O)[C@H](Cc1ccccc1)NC(=O)[C@H](CC(N)=O)NC(=O)[C@H](C)NC(=O)[C@H](CC(C)C)NC(=O)[C@H](CCCNC(=N)N)NC(=O)[C@H](CCC(N)=O)NC(=O)[C@@H](NC(=O)[C@H](C)NC(=O)[C@@H]1CSSC[C@H](NC(=O)[C@@H](N)CCCCNC(=O)COCCOCCNC(=O)CC[C@H](NC(=O)CCCCCCCCCCCCCCCCCCC(=O)O)C(=O)O)C(=O)N[C@@H](CC(N)=O)C(=O)N[C@@H]([C@@H](C)O)C(=O)N[C@@H](C)C(=O)N[C@@H]([C@@H](C)O)C(=O)N1)[C@@H](C)O)C(=O)N1CCC[C@H]1C(=O)N[C@@H](CO)C(=O)N[C@@H](CO)C(=O)N[C@H](C(=O)N[C@@H](CC(N)=O)C(=O)N[C@H](C(=O)NCC(=O)N[C@@H](CO)C(=O)N[C@@H](CC(N)=O)C(=O)N[C@H](C(=O)N[C@@H](Cc1ccc(O)cc1)C(N)=O)[C@@H](C)O)C(C)C)[C@@H](C)O, also called compound 41) | 0.26 | 16.7 | 4.35 |
| K([γGlu-C20 diacid])CNTATCATQRLANFLRHSSPNFGAIPSSTNVGSKTY-NH2 (disulfide 2-7; N-terminus assumed; SMILES CC[C@H](C)[C@H](NC(=O)[C@H](C)NC(=O)CNC(=O)[C@H](Cc1ccccc1)NC(=O)[C@H](CC(N)=O)NC(=O)[C@@H]1CCCN1C(=O)[C@H](CO)NC(=O)[C@H](CO)NC(=O)[C@H](Cc1c[nH]cn1)NC(=O)[C@H](CCCNC(=N)N)NC(=O)[C@H](CC(C)C)NC(=O)[C@H](Cc1ccccc1)NC(=O)[C@H](CC(N)=O)NC(=O)[C@H](C)NC(=O)[C@H](CC(C)C)NC(=O)[C@H](CCCNC(=N)N)NC(=O)[C@H](CCC(N)=O)NC(=O)[C@@H](NC(=O)[C@H](C)NC(=O)[C@@H]1CSSC[C@H](NC(=O)[C@@H](N)CCCCNC(=O)CC[C@H](NC(=O)CCCCCCCCCCCCCCCCCCC(=O)O)C(=O)O)C(=O)N[C@@H](CC(N)=O)C(=O)N[C@@H]([C@@H](C)O)C(=O)N[C@@H](C)C(=O)N[C@@H]([C@@H](C)O)C(=O)N1)[C@@H](C)O)C(=O)N1CCC[C@H]1C(=O)N[C@@H](CO)C(=O)N[C@@H](CO)C(=O)N[C@H](C(=O)N[C@@H](CC(N)=O)C(=O)N[C@H](C(=O)NCC(=O)N[C@@H](CO)C(=O)N[C@@H](CCCCN)C(=O)N[C@H](C(=O)N[C@@H](Cc1ccc(O)cc1)C(N)=O)[C@@H](C)O)C(C)C)[C@@H](C)O, also called compound 35) [N^ε1-[(4S)-4-carboxy-4-(19-carboxynonadecanoylamino)butanoyl]-[Arg17,Pro21,Pro27,Lys35]-h-amylin] | 0.364 | 15 | 5.46 |
| K([AEEA-γGlu-C20 diacid])CNTATCATQRLANFLRHSSPNFGAIPSSTNVGSETY-NH2 (disulfide 2-7; N-terminus assumed; SMILES CC[C@H](C)[C@H](NC(=O)[C@H](C)NC(=O)CNC(=O)[C@H](Cc1ccccc1)NC(=O)[C@H](CC(N)=O)NC(=O)[C@@H]1CCCN1C(=O)[C@H](CO)NC(=O)[C@H](CO)NC(=O)[C@H](Cc1c[nH]cn1)NC(=O)[C@H](CCCNC(=N)N)NC(=O)[C@H](CC(C)C)NC(=O)[C@H](Cc1ccccc1)NC(=O)[C@H](CC(N)=O)NC(=O)[C@H](C)NC(=O)[C@H](CC(C)C)NC(=O)[C@H](CCCNC(=N)N)NC(=O)[C@H](CCC(N)=O)NC(=O)[C@@H](NC(=O)[C@H](C)NC(=O)[C@@H]1CSSC[C@H](NC(=O)[C@@H](N)CCCCNC(=O)COCCOCCNC(=O)CC[C@H](NC(=O)CCCCCCCCCCCCCCCCCCC(=O)O)C(=O)O)C(=O)N[C@@H](CC(N)=O)C(=O)N[C@@H]([C@@H](C)O)C(=O)N[C@@H](C)C(=O)N[C@@H]([C@@H](C)O)C(=O)N1)[C@@H](C)O)C(=O)N1CCC[C@H]1C(=O)N[C@@H](CO)C(=O)N[C@@H](CO)C(=O)N[C@H](C(=O)N[C@@H](CC(N)=O)C(=O)N[C@H](C(=O)NCC(=O)N[C@@H](CO)C(=O)N[C@@H](CCC(=O)O)C(=O)N[C@H](C(=O)N[C@@H](Cc1ccc(O)cc1)C(N)=O)[C@@H](C)O)C(C)C)[C@@H](C)O, also called compound 26) | 0.212 | 29.9 | 6.34 |
